Experimental data reported in patent US20240383984A1 (Genentech, published 2024).

T1: human E11 protein (amino acids 745-850 of SEQ ID NO: 114, N-terminal His tag) (human, UniProt Q96RD9 745-850)
T1 construct: Membrane-proximal Ig domain of FcRH5, produced in CHO cells; also called human E11 domain; recombinant human E11
T1 sequence: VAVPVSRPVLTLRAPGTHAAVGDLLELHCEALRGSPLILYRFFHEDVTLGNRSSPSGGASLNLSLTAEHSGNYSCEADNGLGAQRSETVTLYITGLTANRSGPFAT

T2: human FcRH4 (full-length, on SVT2 cells) (human, UniProt Q96PJ5 20-515)
T2 construct: whole, on cells; also called SVT2-FcRH4
T2 sequence (looked up): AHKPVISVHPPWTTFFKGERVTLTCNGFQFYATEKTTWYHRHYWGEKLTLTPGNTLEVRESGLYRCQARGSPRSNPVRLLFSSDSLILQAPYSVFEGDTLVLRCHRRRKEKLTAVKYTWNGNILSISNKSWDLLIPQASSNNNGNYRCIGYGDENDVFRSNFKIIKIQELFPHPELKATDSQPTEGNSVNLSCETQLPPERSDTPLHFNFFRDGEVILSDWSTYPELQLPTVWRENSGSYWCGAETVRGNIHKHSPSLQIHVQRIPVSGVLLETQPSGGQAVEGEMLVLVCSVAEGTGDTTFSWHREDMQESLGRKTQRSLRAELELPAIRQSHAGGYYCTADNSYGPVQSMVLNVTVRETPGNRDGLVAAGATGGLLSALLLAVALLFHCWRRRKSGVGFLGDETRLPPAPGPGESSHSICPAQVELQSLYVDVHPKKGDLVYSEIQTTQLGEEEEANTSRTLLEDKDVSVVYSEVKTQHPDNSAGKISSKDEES

T3: human FcRH1 (full-length, on SVT2 cells) (human, UniProt Q96LA6 17-429)
T3 construct: whole, on cells; also called SVT2-FcRH1
T3 sequence (looked up): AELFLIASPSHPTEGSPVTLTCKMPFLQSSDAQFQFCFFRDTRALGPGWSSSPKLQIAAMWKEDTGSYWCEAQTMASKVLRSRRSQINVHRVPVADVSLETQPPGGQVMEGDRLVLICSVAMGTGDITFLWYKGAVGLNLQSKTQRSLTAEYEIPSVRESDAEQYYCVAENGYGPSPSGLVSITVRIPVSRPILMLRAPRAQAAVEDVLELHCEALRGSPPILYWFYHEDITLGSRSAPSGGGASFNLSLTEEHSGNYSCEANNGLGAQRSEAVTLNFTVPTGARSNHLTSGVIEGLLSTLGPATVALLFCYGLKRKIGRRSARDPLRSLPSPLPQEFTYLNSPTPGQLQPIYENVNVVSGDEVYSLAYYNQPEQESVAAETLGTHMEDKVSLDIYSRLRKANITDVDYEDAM

T4: Human E11-TM-ICD (E11 domain, transmembrane domain, and cytoplasmic domains of human FcRH5, on SVT2 cells) (human, UniProt Q96RD9 745-977)
T4 construct: On cells
T4 sequence: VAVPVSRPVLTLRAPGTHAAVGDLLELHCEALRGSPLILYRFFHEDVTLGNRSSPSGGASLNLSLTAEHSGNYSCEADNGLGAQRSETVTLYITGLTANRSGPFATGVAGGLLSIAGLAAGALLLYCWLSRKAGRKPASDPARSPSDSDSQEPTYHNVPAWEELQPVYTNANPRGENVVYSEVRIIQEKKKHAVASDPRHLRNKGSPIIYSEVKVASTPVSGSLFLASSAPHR

T5: human FcRH2 (full-length, on SVT2 cells) (human, UniProt Q96LA5 20-508)
T5 construct: whole, on cells; also called SVT2-FcRH2
T5 sequence (looked up): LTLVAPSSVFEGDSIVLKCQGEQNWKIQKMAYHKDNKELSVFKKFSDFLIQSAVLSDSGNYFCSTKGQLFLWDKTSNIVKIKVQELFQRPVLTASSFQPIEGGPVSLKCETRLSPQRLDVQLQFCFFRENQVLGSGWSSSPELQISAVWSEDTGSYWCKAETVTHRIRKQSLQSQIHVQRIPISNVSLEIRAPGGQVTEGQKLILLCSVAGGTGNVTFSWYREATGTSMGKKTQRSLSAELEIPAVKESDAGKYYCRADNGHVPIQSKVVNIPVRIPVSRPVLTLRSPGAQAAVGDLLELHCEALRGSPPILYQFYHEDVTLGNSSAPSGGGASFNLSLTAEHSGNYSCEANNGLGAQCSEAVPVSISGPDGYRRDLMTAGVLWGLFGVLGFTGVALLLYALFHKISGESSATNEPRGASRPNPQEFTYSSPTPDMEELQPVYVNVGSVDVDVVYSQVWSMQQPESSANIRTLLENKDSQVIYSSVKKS

B1: 15G8 (antibody, mouse IgG2a, V domains shown)
VH: EVQLQQSGPELVKPGASVKMSCKASGYTFTNYVIHWMKQKPGQGLEWIGYISPYNDYTKYNEKFEGKATLTSDKSSNTAYMELSSLTSEDSAVYYCARRDYYGSSDYWGQGTTLTVSS
VL: QIVLTQSPAIMSASPGEKVTMTCSASSSVDYMHWYQQKSGTSPKKWIYDTSKLASGVPARFSGSGSGTSYSLTIGSMEAEDAATYYCQQWSSNPPTFGGGTKLEIK
notes: mouse mAb, Campaign C; recombinant murine IgG2a for SPR; also called mAb 15G8
B2: 17B1 (antibody, mouse IgG2a, V domains shown)
VH: QVQLQQSGPELVRPGVSVKISCKGSGYTFTHYAMHWVKQSHTKSLEWIGMISSSSGNTNFNQKFMDKATMTVDKSSTTAYLELARLTFGDSAIYYCARWSYYALFDYWGQGTTVTVSS
VL: ENVLTQSPAIMSASPGEKVTMTCSADSSVDYIHWYQQKSNTSPKLWIYDTSKLASGVPGRFSGSGSGNSYSLTISSMEAEDFATYYCFQGSGYPLTFGSGTKLELK
notes: mouse mAb, Campaign C; recombinant murine IgG2a for SPR

Legend:
[1] = target: T1, human E11 protein (amino acids 745-850 …); experiment: SPR, IgG captured on protein A, monovalent
Protocol: *E11 domain, transmembrane domain, and cytoplasmic domains of human FcRHS. §Surface plasmon resonance BIACORE * KD, monovalent affinity. Human E11 domain experiments were performed 1 to 3 times and averaged.
Briefly, test antibodies were captured on flow cells 2, 3 or 4 with flow cell 1 as a reference on a protein A Series S CM5 chip (GE Life Sciences, Piscataway, NJ). An FcRH5 protein fragment was used as analyte, with a flow rate of 30 μl/minute. Between injections the capture surface was regenerated by a 30 second injection of 10 mM glycine, pH 1.5 at a flow rate of 10 μl/minute. Interactions were assessed at 25° C. in 10 mM HEPES pH 7.4, 150 mM NaCl, 0.05% Tween 20 (HBSP). Reference data from the reference flow cell and from injection of buffer alone was subtracted prior to kinetic analysis. Kinetic information was calculated by fitting data to a 1:1 binding model. Reference subtraction and data fitting were performed using BIAevaluation software (GE Life Sciences, Piscataway, NJ).

[2] = target: T2, human FcRH4 (full-length, on SVT2 cells); experiment: FACS, SVT2 cells
[3] = target: T3, human FcRH1 (full-length, on SVT2 cells); experiment: FACS, SVT2 cells
[4] = target: T4, Human E11-TM-ICD (E11 domain, …); experiment: FACS, SVT2 cells
[5] = target: T5, human FcRH2 (full-length, on SVT2 cells); experiment: FACS, SVT2 cells

| Binder | Kd [1] [nM] | binding result [2] | binding result [3] | binding result [4] | binding result [5] |
| --- | --- | --- | --- | --- | --- |
| B1 | 0.5 | no binding | no binding | binds | no binding |
| B2 | 68 | no binding | no binding | binds | no binding |
